These results are taken from US12331110B2, “Monoclonal antibodies against endotrophin and the use thereof” (THE BOARD OF REGENTS OF THE UNIVERSITY OF TEXAS SYSTEM, priority 2018, dated 2025).

In this test the test system is MCF7 breast cancer cells. As to the kind of experiment: MCF7 cisplatin/endotrophin cell survival (MTS) neutralization assay. It counts as cell-based, human. How it is done: FIGS. 3A-D. Generation and screening of anti-human endotrophin. (FIG. 3A) MCF7 breast cancer cells (20,000 cells) were plated into a 96-well plate. Cells were then treated with 10 μm cisplatin, 10 μm cisplatin/100 ng/mL endotrophin, and 10 μm cisplatin/100 ng/mL endotrophin/10 μg/mL ETPmAb4 for 24 hr. Cell survival was measured using a CellTiter One Solution Cell Proliferation Assay. Statistical significance of the curve fit parameters was tested using the extra sum of squares F test with P<0.05 considered significant. Goodness of curve fit is described using r2. Mean±SEM, n=3. (FIG. 3B) ETP transfected MCF7 cells (100,000 cells) were plated into a 24-well plate with 500 μL media. Then 4 μL of supernatant was loaded for Western blotting. It is estimated that approximately 1 ng of ETP was loaded, compared with the standard ETP (2 ng band). The concentration yields approximately 0.052 pg secreted ETP/hr/cell. […] ETP expression was determined by qRT-PCR and normalized to GAPDH. […] Migrated cells were counted after a 2 hr incubation. In all cases, data was represented as mean±SD, and statistical significance (*** p<0.0001) was calculated using an unpaired Student's t-test.
MTS assay screening endotrophin monoclonal antibodies. […] Cell survival was measured using a CellTiter One Solution Cell Proliferation Assay. […] The plate was then read at 490 nm using a Sunrise microplate reader (TECAN). […]

B1: ETP-mAb4: rabbit monoclonal anti-human endotrophin antibody selected for further study; VH SEQ ID NO: 125, VL SEQ ID NO: 126 (antibody, V domains shown)
VH: SSRVKESGGDLVKPGASLTLTCKASGFSFSSGYYICWVRQAPGKGLEWIACIYGGNNNPYYANWVNGRFTTSKTSSTTVTLQMTNLTGADTATYFCARKDINIGGAYELWGPGTLVTISS
VL: ELVMTQTPASVSEPVGGTVTINCQASQSISSSYLSWYQQKPGQPPKLLIYKASTLASGVPSRFKGSGSGTQFSLTISDLECADAATYYCQYSDWANSYGNAFGGGTEVVVK
As for B1, under “10 μm cisplatin, 100 ng/mL endotrophin, 10 μg/mL antibody, 24 hr”, the “neutralization of endotrophin-mediated MCF-7 cell survival” value was “completely neutralize”. Moreover, for the setting “cisplatin plus endotrophin”, the “restoration of cisplatinum susceptibility of endotrophin-exposed MCF-7 cells” value is recorded as “forced the cells to become susceptible to cisplatinum, in a dose-dependent manner”.
